From the supplement of paper PMC10724198
± gives the standard deviation of the averaged measurements.

tested on: Saccharomyces cerevisiae; assay: protein stability index of tFT-peptide fusion (C-terminal peptide) (PSI (0-1 scale)); higher = more stable (slower turnover); conditions: genetic background: wild type; temperature: 30 C
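Further: PSI is a weighted mean of sequencing reads over stability bins, variants kept only with over 10 reads, mCherry proximal and sfGFP distal, peptide attached via GGGS linker.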

Point of comparison: FCLAPMLLPGSF, protein stability index 0.6785 ± 0.0064. Against it:
- SLASSLHTYDLT — within error, 0.661 ± 0.032
- SLLTQSPLLPPP — within error, 0.777 ± 0.29
- SPPTRAPISSIS — higher, 0.733 ± 0.0087
- VRIARSYERGGK — within error, 0.701 ± 0.059
- SPPPFPHPHQLP — higher, 0.726 ± 0.029
- PGTGPPSWGRTS — lower, 0.605 ± 0.047
- DRLVGRVGGHGM — within error, 0.755 ± 0.14
- GGVATQARQTCN — within error, 0.742 ± 0.17
- CPTHPLFLDSYV — within error, 0.676 ± 0.026
- VLGFLGWPCSSS — higher, 0.76 ± 0.0078
- TPPLPLPSPPCP — higher, 0.7249 ± 0.0035
- VPTSLGAYLRMV — lower, 0.511 ± 0.014
- TPSIFNRTNGPK — higher, 0.738 ± 0.043
- PAYLMDRGYIMT — lower, 0.613 ± 0.031
- RLGGRDCWGPWG — within error, 0.693 ± 0.017
- TDGLGGGVVGRE — within error, 0.664 ± 0.011
- YLDTVALLSRVL — lower, 0.569 ± 0.027
- PPSLPLPLPSAP — within error, 0.683 ± 0.015
- VLRPVSCTKLAA — within error, 0.656 ± 0.083
- RLAVQCVCQIGI — lower, 0.621 ± 0.019
- GARRGVSERSPA — within error, 0.647 ± 0.041
- GFVRYPYFAFGR — within error, 0.687 ± 0.093
- PSWPRLSFRPST — within error, 0.689 ± 0.022
- DKHGELFIVCKV — lower, 0.54 ± 0.033
- ILGDGRLRLISF — within error, 0.682 ± 0.05
- VFLRGWGRSEGG — the same, 0.679 ± 0.012
- PPLPATHLPPPP — higher, 0.802 ± 0.058
- HPPPFRSIPEPQ — within error, 0.678 ± 0.019
- RPNQNAFACMSP — within error, 0.702 ± 0.026
- MPCPFSSASRAI — within error, 0.668 ± 0.036
- VSGFPHASSSPT — lower, 0.6225 ± 0.0052
- RGWRYRAEGFRG — within error, 0.663 ± 0.022
- GGCPPFGVSSVG — higher, 0.708 ± 0.013
- NGKGARSGETRT — within error, 0.647 ± 0.057
- PPPPPPPPSLSP — lower, 0.591 ± 0.047
- LFLSFFLPSYNT — within error, 0.66 ± 0.026
- EVGLSVLLPGGG — within error, 0.675 ± 0.022
- VVGGRWVVWSFK — within error, 0.688 ± 0.018
- VFCGRVVVGSVV — lower, 0.65745 ± 0.0006
- SIVESRGRGFRL — within error, 0.697 ± 0.18
- RGLSCAAYFSGA — higher, 0.727 ± 0.028
- LYSGLASEIWYT — higher, 0.737 ± 0.045
- GGGLGGLGCFMV — within error, 0.698 ± 0.036
- FQMLPLGHQFPQ — higher, 0.736 ± 0.0087
- IDPPSLCTPPPP — lower, 0.635 ± 0.034
- GGVRRSPRAILR — higher, 0.705 ± 0.014
- CKTYPTKALVVE — within error, 0.693 ± 0.0097
- SPANLGFKHSGR — within error, 0.674 ± 0.021
- NTRKNTTRKSQE — within error, 0.637 ± 0.042
- VVFKPHEVRTSD — within error, 0.717 ± 0.054
- LLCPSPPSDIPP — within error, 0.661 ± 0.016
- SASSPLPPAATG — within error, 0.652 ± 0.051
- PPRARPRLPPGA — lower, 0.606 ± 0.04
- LAWYPGYCYCCL — lower, 0.598 ± 0.0089
- WVGGGRAKAKRE — within error, 0.696 ± 0.054
- HTGKAATRKVIK — lower, 0.634 ± 0.024
- TGVFFPPQLPLP — within error, 0.69 ± 0.023
- NRCGGACGRQAG — within error, 0.711 ± 0.027
- PPPPLLPPPSPL — within error, 0.7 ± 0.032
- GRVRFVCVGLGG — within error, 0.639 ± 0.047
- FPCIPAAPPIFL — higher, 0.71 ± 0.015
- GPGGTVDLIWGS — within error, 0.703 ± 0.034
- RMGQQISSVRLF — the same, 0.679 ± 0.0082
- GVVGGGEDRWSV — higher, 0.738 ± 0.032
- PRLPPLRPPPSP — higher, 0.7079 ± 0.0064
- EREALKSCIIRA — lower, 0.641 ± 0.014
- APFRHKANEPGE — within error, 0.706 ± 0.037
- LGVSVVEPGRVR — within error, 0.702 ± 0.04
- VPFVGLGLKVRV — lower, 0.6236 ± 0.0057
- PPPSSSLAAPPT — within error, 0.677 ± 0.026
- LLRVLVTFDAFD — lower, 0.576 ± 0.021
- KECTWRQGKYNA — within error, 0.752 ± 0.089
- GSSPCHNEESGT — within error, 0.693 ± 0.014
- YPSLPQIVLATV — lower, 0.5033 ± 0.004
- VSGGGWDSCLSV — higher, 0.724 ± 0.0082
- DLRDQDAQTTST — within error, 0.692 ± 0.0088
- RFFPPPARPSPF — higher, 0.732 ± 0.025
- RKTKIKKLGRDK — within error, 0.644 ± 0.1
- ILPPPYVPARLS — lower, 0.577 ± 0.054
- NPPPSPALLSRP — higher, 0.809 ± 0.06
- PPPGRPDAMTPP — within error, 0.676 ± 0.022
- ADRVHLNGLEML — higher, 0.747 ± 0.0093
- VYMDKKNKCIMK — within error, 0.795 ± 0.15
- GGGSIAPRSVGT — higher, 0.7649 ± 0.0021
- FRLPPRPPLTIP — within error, 0.6726 ± 0.0062
- KKQHTIKKKKKR — higher, 0.734 ± 0.028
- HPTLPPHPPPHP — higher, 0.768 ± 0.036
- WSSTLFFFVGFS — within error, 0.673 ± 0.056
- LPTPVRRPPSPP — within error, 0.71 ± 0.028
- VYKRNILHLASE — within error, 0.681 ± 0.13
- LAAVAAGDVGGG — within error, 0.674 ± 0.035
- GWGCCWSVAWTF — lower, 0.614 ± 0.026
- TIGREENKIANI — lower, 0.651 ± 0.016
- HYLYSLLVLPPL — within error, 0.658 ± 0.046
- ERSHGEKGVFYL — higher, 0.73 ± 0.031
- TWGACGKMLSDR — within error, 0.682 ± 0.026
- HTPPLPPPPDPT — within error, 0.723 ± 0.061
- TRPTQNKQIKNI — lower, 0.6141 ± 0.0032
- CRVAFGFMSRFV — within error, 0.729 ± 0.067
- CPGLYVRAYGHC — lower, 0.613 ± 0.049
